Laboratory results: article PMC5512576

Target: BF520 Env 637K (HIV-1)

PGT151 (antibody) showed a maximum percent neutralization, TZM-bl pseudovirus neutralization by PGT151 of 59%.
